The values that follow come from article PMC3343272, “Asymmetric Mode of Ca^2+-S100A4 Interaction with Nonmuscle Myosin IIA Generates Nanomolar Affinity Required for Filament Remodeling” (Structure(London, England:1993), 2012).

B1: S100A4 V77D (natural protein)
chain: MACPLEKALDVMVSTFHKYSGKEGDKFKLNKSELKELLTRELPSFLGKRTDEAAFQKLMSNLDSNRDNEVDFQEYCDFLSCIAMMCNEFFEGFPDKQPRKK
notes: source: expressed and purified as described previously (Badyal et al., 2011)
B2: M39 peptide of nonmuscle myosin IIA heavy chain (residues Q1897-A1935) (peptide)
peptide: QRELEDATETADAMNREVSSLKNKLRRGDLPFVVPRRMA
notes: nonmuscle myosin IIA heavy chain (NM-MHC IIA), residues Q1897-A1935; also called u-M39; WT M39; source: synthetic peptide; bought: GL Biochem Ltd (Shanghai, China), purity >95% by HPLC
B3: M39, nonmuscle myosin IIA heavy chain peptide (residues Q1897–A1935) (peptide, UniProt P35579 1897-1935, looked up)
peptide: B2 peptide
notes: nonmuscle myosin IIA (NMIIA) heavy chain, residues Q1897-A1935; Unmodified (no fluorescent label); also called u-M39; source: synthetic peptide
B4: S100A4 (natural protein)
chain: not shown
notes: S100A4; the NMR analysis speaks of residues 1-101; The His-tag is named only for the SPR experiment (two His-tags in the dimer); also called WT S100A4; u-S100A4; source: expressed and purified as described previously (Badyal et al., 2011)
B5: M111 fragment of nonmuscle myosin IIA heavy chain (residues Q1850-E1960) (domain or fragment, UniProt P35579 1850-1960, looked up)
chain: QVDDERRNAEQYKDQADKASTRLKQLKRQLEEAEEEAQRANASRRKLQRELEDATETADAMNREVSSLKNKLRRGDLPFVVPRRMARKGAGDGSDEEVDGKADGAEAKPAE
notes: nonmuscle myosin IIA heavy chain, residues Q1850-E1960; source: expressed and purified as described previously (Badyal et al., 2011)
B6: M111, nonmuscle myosin IIA heavy chain fragment (residues Q1850–E1960) (domain or fragment, UniProt P35579 1850-1960, looked up)
chain: B5 chain
notes: nonmuscle myosin IIA (NMIIA) heavy chain, residues Q1850-E1960
B7: M70 fragment of nonmuscle myosin IIA heavy chain (residues A1868-G1938) (domain or fragment, UniProt P35579 1868-1938, looked up)
chain: ASTRLKQLKRQLEEAEEEAQRANASRRKLQRELEDATETADAMNREVSSLKNKLRRGDLPFVVPRRMARKG
notes: nonmuscle myosin IIA heavy chain, residues A1868-G1938; small print, not read surely; also called u-M70; 15N-M70; source: recombinant; expressed and purified as described previously (Badyal et al., 2011)
B8: M70, nonmuscle myosin IIA heavy chain fragment (residues A1868–G1938) (domain or fragment, UniProt P35579 1868-1938, looked up)
chain: B7 chain
notes: nonmuscle myosin IIA (NMIIA) heavy chain, residues A1868-G1938; also called u-M70; 13C,15N-M70; source: recombinant, unlabeled, 15N-labeled and 13C,15N-labeled
B9: S100A4 C81D (natural protein)
chain: not shown
notes: as for B1
B10: M200 fragment of nonmuscle myosin IIA heavy chain (Q1761-E1960) (domain or fragment, UniProt P35579 1761-1960, looked up)
chain: QINTDLNLERSHAQKNENARQQLERQNKELKVKLQEMEGTVKSKYKASITALEAKIAQLEEQLDNETKERQAACKQVRRTEKKLKDVLLQVDDERRNAEQYKDQADKASTRLKQLKRQLEEAEEEAQRANASRRKLQRELEDATETADAMNREVSSLKNKLRRGDLPFVVPRRMARKGAGDGSDEEVDGKADGAEAKPAE
notes: nonmuscle myosin IIA heavy chain, residues Q1761-E1960; forms a coiled coil and filaments; source: expressed and purified as described previously (Badyal et al., 2011)

Data set [1] deals with the molecule itself. Put plainly: SEC-MALLS; Superdex 75 10/300, 20 mM MES pH 6.1, 150 mM NaCl, 0.5 mM DTT, 0.7 ml/min; 75 µM M70, 150 µM M111, 50 µM S100A4, 50 µM S100A4 V77D, 50 µM S100A4 C81D loaded.
The target in data set [2] is B4. Put plainly: competitive turbidity assay; 12.5 µM M200 diluted into 100 mM NaCl, 20 mM Hepes, 1 mM Mg2+, 100 µM Ca2+; turbidity at 300 nm; 25 µM S100A4 (monomer) added at 800 s, 10 µM M39 added at 1450 s. Particulars: both partners purified.
Data set [3] concerns the target B4. Put plainly: SPR; Biacore X100, S100A4 (0.5 µM) coupled by its His-tags to a Ni-NTA chip; M39 at 1, 3, 9 and 27 nM; 20 mM MES pH 6.1, 150 mM NaCl, 5 mM CaCl2, 0.5 mM TCEP, 50 µM EDTA, 0.005% Surfactant P20; fit to 1:1 Langmuir model. Particulars: both partners purified. (SPR reads the build-up and loss of mass on a sensor chip optically.)
The target of data set [4] is B4. The data set can be described thus: kinetic scheme (estimates or values required for thermodynamic balance); S100A4 dimer with a single Ca2+ bound; values in blue in the scheme, not experimental measurements. To be noted: both partners purified.
For data set [5], the target named is B4. Put plainly: stopped-flow Quin-2 fluorescence (Ca2+ dissociation); M39 premixed with 13 µM S100A4 (monomer concentration) and 50 µM Ca2+, mixed with 100 µM Quin-2; 20 mM NaCl, 10 mM Hepes, 1 mM MgCl2, pH 7.5, 20 °C; amplitude of the fast phase against [M39]; mutants with up to 50 µM M39. Particulars: both partners purified.
For data set [6], the target named is B4. Put plainly: kinetic scheme (estimates or values required for thermodynamic balance); apo S100A4 dimer (no Ca2+ bound); values in blue in the scheme, not experimental measurements. Particulars: both partners purified.
The target of data set [7] is T1, S100A4, wild type, Ca^2+-bound dimer (recombinant) (UniProt P26447 1-101).
T1 construct: also called WT; u-S100A4; source: recombinant, unlabeled and 13C,15N-labeled; purified
Put plainly: kinetic assays; kinetic assays similar to those of Badyal et al., 2011 (Figures S1I–S1L). Particulars: both partners purified.

Data set [8] concerns the target T1, S100A4, wild type, Ca^2+-bound dimer …. Put plainly: ITC; 10 μM S100A4 in the cell, 75 μM M39 in the syringe; single site-binding model; the paper calls the KD an upper limit. Particulars: both partners purified.
For data set [9] the target is unchanged. The data set can be described thus: ITC + SPR + other: kinetic assays; limit that the paper gives as compatible with all its methods. To be noted: both partners purified.
Data set [10] has the same target. Put plainly: SPR; sensorgrams at nanomolar concentrations of M39; simultaneous fit to a single site-binding model; n = 3. Particulars: both partners purified.
For data set [11], the target named is T2, S100A4 C81D mutant (studied in vitro) (UniProt P26447 1-101, C81D).
T2 construct: Parent: m1
The data set can be described thus: NMR titration; S100A4 V77D and C81D mutants (Figures S3C and S3D); the myosin fragment is not given. Particulars: both partners purified.

The target in data set [12] is T3, S100A4 V77D mutant (studied in vitro) (UniProt P26447 1-101, V77D).
T3 construct: Parent: m1
The description is as above. Particulars: both partners purified.

In data set [13] the target is B10. Put plainly: competitive turbidity assay; 12.5 µM M200 diluted into 100 mM NaCl, 20 mM Hepes, 1 mM Mg2+, 100 µM Ca2+; turbidity at 300 nm; 25 µM S100A4 (monomer) added at 800 s, 10 µM M39 added at 1450 s. To be noted: both partners purified.
Data set [14] concerns the molecule itself. Put plainly: SEC-MALLS; Superdex 75 10/300, 20 mM MES pH 6.1, 150 mM NaCl, 0.5 mM DTT, 0.7 ml/min; 75 µM M70, 150 µM M111, 50 µM S100A4, 50 µM S100A4 V77D, 50 µM S100A4 C81D loaded. The source holds these as a separate data set.
Data set [15] deals with T1, S100A4, wild type, Ca^2+-bound dimer …. The data set can be described thus: SEC-MALS; SEC-MALLS with refractive index and absorbance detection; S100A4 and myosin fragment mixed (1:1 molar ratio for M111). To be noted: both partners purified.
Data set [16] concerns the molecule itself. Put plainly: competitive turbidity assay; 12.5 µM M200 diluted into 100 mM NaCl, 20 mM Hepes, 1 mM Mg2+, 100 µM Ca2+; turbidity at 300 nm; 25 µM S100A4 (monomer) added at 800 s, 10 µM M39 added at 1450 s.

Several values for one entry are separate records, joined by “and”; a condition that tells them apart may be missing. Equal entries are not always repeated. Where two headings read alike, the source gives them in different places.

The term stoichiometry N denotes a count of units in the complex or per binding partner. Turning to B1, the “stoichiometry N” value in [1] was found to be 2.

The Kd is the free concentration of one partner at which half of the binding sites on the other are occupied at equilibrium, for simple one-to-one binding. For the molecule B2, the Kd with S100A4 [2] is less than 0.01 µM; with S100A4 [3], 0.0004 µM; with S100A4 [4], 1 µM; in the data set with S100A4 [5], less than 0.5 µM; in the data set with S100A4 [6], 10000 µM. For the same molecule, the “stoichiometry N” value with S100A4 [5] was 2.6 S100A4 monomers per M39.

B3: the Kd is approximately 0.0001 µM in [7]; 0.0059 µM and 0.004 µM in [8]; not above 0.001 µM in [9]; 0.00024 ± 7e-05 µM in data set [10]; approximately 100 µM in data set [11]; approximately 100 µM in data set [12]. Further, in data set [8], the “stoichiometry N” value came out at 0.55 ± 0.06 M39/S100A4.

Regarding B4, in [13], the binding result is reported as “binds”.

On to B5, for which the “stoichiometry N” value in [14] came to 2.

As to B6, the “stoichiometry N” value in data set [15] was 0.5 myosin fragment per S100A4 subunit.

Regarding B7, the “stoichiometry N” value in data set [14] turned out to be 2.

B8: the “stoichiometry N” value in data set [15] is 0.5 myosin fragment per S100A4 subunit.

Turning to B9, in data set [1], the “stoichiometry N” value was determined as 2.

On to B10, for which, in [16], the binding result was “binds”.
